Molecular target: β2m lacking the N-terminal six residues of the mature protein (human)
Experiment: SEC; analytical size exclusion chromatography of 1 mg/ml protein in phosphate buffered saline pH 7.3 at 25°C; monomer and dimer peaks

For “β2m lacking the N-terminal six residues of the mature protein (domain or fragment)”, the percent dimeric was 4%.

— article PMC3212568
